Laboratory results reported in publication PMC4243253.

Substrate: N[C@@H](CC(=O)c1ccccc1NC=O)C(=O)O
Experiment: purified protein
Assay type: biochemical, Burkholderia cenocepacia
Conditions: 0.1 M sodium phosphate, pH 7.4, 20 μM ZnCl2, 25°C

B1: BcKynB (Burkholderia cenocepacia J2315) (protein)
chain: MDTLWDISPPVSPATPVWPGDTPVAVERVWRMEAGSPVNVARLTLSPHTGAHCDAPLHYDADGAPIGAVPLDTYLGPCRVIHCIGAAPVVRPADVEAALDGVPPRVLLRTYARAAVEQWDSNFCAVAPDTVDLLAAHGVKLIGIDTPSLDPQESKTMDAHRRVRAHRMAILEGIVLDDVPPGDYELIALPLKFATLDASPVRAVLRALPAQAS
Km: 570 ± 20 µM | Vmax: 0.0582 µmol/min | kcat: 43.9 s⁻¹ | kcat/Km: 77100 M⁻¹ s⁻¹
